Laboratory results from article PMC12102759.

B1: ATXN2 peptide 911-926 (Ataxin-2), 16-mer library wild type / PABPC1 PABC (PABPC1 PABC domain, residues 544-623) (parent)
chain 1: KSTLNPNAKEFNPRSF
chain 2: PLTASMLASAPPQEQKQMLGERLFPLIQAMHPTLAGKITGMLLEIDNSELLHMLESPESLRSKVDEAVAVLQAHQAKEAA

Variants of: B1
Assay: proteomic peptide phage display deep mutational scan (ProP-PD DMS): M13 P8 16-mer library selected against immobilised GST-tagged bait for four days (rounds), NGS of the eluted pools per day and pseudo-replica
Settings: with PABPC1 PABC (PABPC1 PABC domain, residues 544-623); bait immobilised on MaxiSorp plates (10 µg), library pre-cleared on GST, 2 h binding at 4 °C, five washes; one round per day, days 1-4; value from days 2 and 3; scale: average fractional NGS count over selection days 2 and 3

| screen value | Variant |
| --- | --- |
| 0 | chain 1 KSTFNPNAKEFNPRSF [chain 1 L4F] |
| 0 | chain 1 KSTYNPNAKEFNPRSF [chain 1 L4Y] |
| 0.000137 | chain 1 KSTMNPNAKEFNPRSF [chain 1 L4M] |
| 0.000117 | chain 1 KSTLNPNAKEFNPNSF [chain 1 R14N] |
| 0.0017 | chain 1 KSTLNPNAKEFNPGSF [chain 1 R14G] |
| 9.46e-05 | chain 1 KSTLNPNAKEFNPMSF [chain 1 R14M] |
| 0.00309 | chain 1 KSTLNPNAKEFNPTSF [chain 1 R14T] |
| 0.00286 | chain 1 KSTLNPNAKEFNPWSF [chain 1 R14W] |
| 0.000875 | chain 1 KSTLNINAKEFNPRSF [chain 1 P6I] |
| 4.64e-05 | chain 1 KSTLNHNAKEFNPRSF [chain 1 P6H] |
| 0.00101 | chain 1 KSTLNVNAKEFNPRSF [chain 1 P6V] |
| 0.00284 | chain 1 KSTLNPNALEFNPRSF [chain 1 K9L] |
| 0.000868 | chain 1 KSTLNPNATEFNPRSF [chain 1 K9T] |
| 0.00168 | chain 1 KSTLNPNAHEFNPRSF [chain 1 K9H] |
| 0.00453 | chain 1 KSTLNPNANEFNPRSF [chain 1 K9N] |
| 0.000884 | chain 1 KSTLNPNAYEFNPRSF [chain 1 K9Y] |
| 0.000159 | chain 1 KSTLNPNAPEFNPRSF [chain 1 K9P] |
| 0.000181 | chain 1 KSTLNPVAKEFNPRSF [chain 1 N7V] |
| 0 | chain 1 KSTLNPGAKEFNPRSF [chain 1 N7G] |
| 0.00073 | chain 1 KSTLNPFAKEFNPRSF [chain 1 N7F] |
| 0.000331 | chain 1 KSTLNPEAKEFNPRSF [chain 1 N7E] |
| 1.57e-05 | chain 1 KSTLNPTAKEFNPRSF [chain 1 N7T] |
| 5.67e-05 | chain 1 KSTLNPYAKEFNPRSF [chain 1 N7Y] |
| 0.000328 | chain 1 KSTLNPHAKEFNPRSF [chain 1 N7H] |
| 0.000441 | chain 1 KSTLNPLAKEFNPRSF [chain 1 N7L] |
| 0.000455 | chain 1 KSTLNPSAKEFNPRSF [chain 1 N7S] |
| 0.000105 | chain 1 KSTLNPAAKEFNPRSF [chain 1 N7A] |
| 0.000289 | chain 1 KSTLNPMAKEFNPRSF [chain 1 N7M] |

| screen value | Variant |
| --- | --- |
| 2.4e-05 | chain 1 KSTLSPNAKEFNPRSF [chain 1 N5S] |
| 0 | chain 1 KSTLQPNAKEFNPRSF [chain 1 N5Q] |
| 0.000365 | chain 1 KSTLNPNAKEFIPRSF [chain 1 N12I] |
| 0.000122 | chain 1 KSTLNPNAKEFKPRSF [chain 1 N12K] |
| 0.00106 | chain 1 KSTLNPNAKEFMPRSF [chain 1 N12M] |
| 0.000678 | chain 1 KSTLNPNAKEFFPRSF [chain 1 N12F] |
| 0.00161 | chain 1 KSTLNPNAKEFAPRSF [chain 1 N12A] |
| 0.000331 | chain 1 KSTLNPNAKEFTPRSF [chain 1 N12T] |
| 0.000365 | chain 1 KSTLNPNAKEFQPRSF [chain 1 N12Q] |
| 0.000112 | chain 1 KSTLNPNAKEFSPRSF [chain 1 N12S] |
| 0.00012 | chain 1 KSTLNPNAKEFDPRSF [chain 1 N12D] |
| 0.000554 | chain 1 KFTLNPNAKEFNPRSF [chain 1 S2F] |
| 0.000114 | chain 1 KDTLNPNAKEFNPRSF [chain 1 S2D] |
| 0.000118 | chain 1 KITLNPNAKEFNPRSF [chain 1 S2I] |
| 0.000338 | chain 1 KATLNPNAKEFNPRSF [chain 1 S2A] |
| 0.000105 | chain 1 KETLNPNAKEFNPRSF [chain 1 S2E] |
| 0.000237 | chain 1 KGTLNPNAKEFNPRSF [chain 1 S2G] |
| 0.000212 | chain 1 KSTLNPNAKEFNARSF [chain 1 P13A] |
| 0.031 | chain 1 KSTLNPNAKEFNVRSF [chain 1 P13V] |
| 1.92e-05 | chain 1 KSTLNPNAKEFNDRSF [chain 1 P13D] |
| 0.00338 | chain 1 KSTLNPNAKEFNQRSF [chain 1 P13Q] |
| 0.000517 | chain 1 KSTLNPNAKEFNIRSF [chain 1 P13I] |
| 0.000246 | chain 1 KSTLNPNAKEFNERSF [chain 1 P13E] |
| 0 | chain 1 KSTLNPNAKEFNHRSF [chain 1 P13H] |
| 0.000178 | chain 1 KSTLNPNAKEFNNRSF [chain 1 P13N] |
| 1.02e-05 | chain 1 KSTLNPNAKEFNTRSF [chain 1 P13T] |
| 0.00012 | chain 1 KSTLNPNAKEFNFRSF [chain 1 P13F] |

The next lines start with the variant.

| Variant | screen value |
| --- | --- |
| chain 1 KSTLNPNAKEFNPHSF [chain 1 R14H] | 0.000471 |
| chain 1 KSTLNPNAKEFNPSSF [chain 1 R14S] | 0.00103 |
| chain 1 KSTLNPNAKEFNPASF [chain 1 R14A] | 0.00158 |
| chain 1 KSTLNPNAKEFNPQSF [chain 1 R14Q] | 0.00156 |
| chain 1 KSTLNPNAKEFNPVSF [chain 1 R14V] | 0.000569 |
| chain 1 KSTLNPNAKEFNPPSF [chain 1 R14P] | 0.00013 |
| chain 1 KSTLNPNAKEFNPYSF [chain 1 R14Y] | 0.000722 |
| chain 1 KSTLNPNAKEFNPFSF [chain 1 R14F] | 0.000523 |
| chain 1 KSTLNPNAKEFNPESF [chain 1 R14E] | 0.000187 |
| chain 1 KSTLNANAKEFNPRSF [chain 1 P6A] | 0 |
| chain 1 KSTLNYNAKEFNPRSF [chain 1 P6Y] | 0 |
| chain 1 KSTLNLNAKEFNPRSF [chain 1 P6L] | 0.000389 |
| chain 1 KSTLNPNAIEFNPRSF [chain 1 K9I] | 0.0153 |
| chain 1 KSTLNPNAREFNPRSF [chain 1 K9R] | 0.00121 |
| chain 1 KSTLNPNAQEFNPRSF [chain 1 K9Q] | 0.001 |
| chain 1 KSTLNPNASEFNPRSF [chain 1 K9S] | 0.0022 |
| chain 1 KSTLNPNAMEFNPRSF [chain 1 K9M] | 0.0042 |
| chain 1 KSTLNPWAKEFNPRSF [chain 1 N7W] | 0 |
| chain 1 KSTLNPQAKEFNPRSF [chain 1 N7Q] | 0.000449 |
| chain 1 KSTLNPIAKEFNPRSF [chain 1 N7I] | 0.00577 |

| Variant | screen value |
| --- | --- |
| chain 1 KSTLNPRAKEFNPRSF [chain 1 N7R] | 5.23e-05 |
| chain 1 KSTLNPDAKEFNPRSF [chain 1 N7D] | 0.000764 |
| chain 1 KSTLAPNAKEFNPRSF [chain 1 N5A] | 0 |
| chain 1 KSTLDPNAKEFNPRSF [chain 1 N5D] | 0 |
| chain 1 KSTLNPNAKEFPPRSF [chain 1 N12P] | 0 |
| chain 1 KSTLNPNAKEFHPRSF [chain 1 N12H] | 0.000518 |
| chain 1 KSTLNPNAKEFVPRSF [chain 1 N12V] | 0.00267 |
| chain 1 KSTLNPNAKEFGPRSF [chain 1 N12G] | 0.000277 |
| chain 1 KSTLNPNAKEFLPRSF [chain 1 N12L] | 0 |
| chain 1 KSTLNPNAKEFWPRSF [chain 1 N12W] | 0.00202 |
| chain 1 KSTLNPNAKEFEPRSF [chain 1 N12E] | 0.000774 |
| chain 1 KMTLNPNAKEFNPRSF [chain 1 S2M] | 0.00187 |
| chain 1 KHTLNPNAKEFNPRSF [chain 1 S2H] | 0.00026 |
| chain 1 KLTLNPNAKEFNPRSF [chain 1 S2L] | 5.2e-05 |
| chain 1 KSTLNPNAKEFNYRSF [chain 1 P13Y] | 0.000164 |
| chain 1 KSTLNPNAKEFNGRSF [chain 1 P13G] | 0.00243 |
| chain 1 KSTLNPNAKEFNWRSF [chain 1 P13W] | 0.000637 |
| chain 1 KSTLNPNAKEFNLRSF [chain 1 P13L] | 0.00026 |
| chain 1 KSTLNPNAKEFNMRSF [chain 1 P13M] | 0 |
